# Where no end group is shown, it is not given here.
# How the values were obtained:
# eNOS = target: T1, eNOS (Bos taurus, UniProt P29473); assay: VEGF-induced NO release by cultured BAEC (NO chemiluminescence); type: cell-based, bovine; details: for inhibition of VEGF-induced NO release: 6 h pretreatment; for effect on basal (unstimulated) NO release: six-hour pretreatment, no VEGF
# T1 construct: effect of Endo5 fused to Cav (endo5-Cav) on NO release by cultured BAEC; endogenous in cells; host or cells: BAEC (cultured endothelial cells)
# T1 sequence (P29473 2-1205 limits assumed): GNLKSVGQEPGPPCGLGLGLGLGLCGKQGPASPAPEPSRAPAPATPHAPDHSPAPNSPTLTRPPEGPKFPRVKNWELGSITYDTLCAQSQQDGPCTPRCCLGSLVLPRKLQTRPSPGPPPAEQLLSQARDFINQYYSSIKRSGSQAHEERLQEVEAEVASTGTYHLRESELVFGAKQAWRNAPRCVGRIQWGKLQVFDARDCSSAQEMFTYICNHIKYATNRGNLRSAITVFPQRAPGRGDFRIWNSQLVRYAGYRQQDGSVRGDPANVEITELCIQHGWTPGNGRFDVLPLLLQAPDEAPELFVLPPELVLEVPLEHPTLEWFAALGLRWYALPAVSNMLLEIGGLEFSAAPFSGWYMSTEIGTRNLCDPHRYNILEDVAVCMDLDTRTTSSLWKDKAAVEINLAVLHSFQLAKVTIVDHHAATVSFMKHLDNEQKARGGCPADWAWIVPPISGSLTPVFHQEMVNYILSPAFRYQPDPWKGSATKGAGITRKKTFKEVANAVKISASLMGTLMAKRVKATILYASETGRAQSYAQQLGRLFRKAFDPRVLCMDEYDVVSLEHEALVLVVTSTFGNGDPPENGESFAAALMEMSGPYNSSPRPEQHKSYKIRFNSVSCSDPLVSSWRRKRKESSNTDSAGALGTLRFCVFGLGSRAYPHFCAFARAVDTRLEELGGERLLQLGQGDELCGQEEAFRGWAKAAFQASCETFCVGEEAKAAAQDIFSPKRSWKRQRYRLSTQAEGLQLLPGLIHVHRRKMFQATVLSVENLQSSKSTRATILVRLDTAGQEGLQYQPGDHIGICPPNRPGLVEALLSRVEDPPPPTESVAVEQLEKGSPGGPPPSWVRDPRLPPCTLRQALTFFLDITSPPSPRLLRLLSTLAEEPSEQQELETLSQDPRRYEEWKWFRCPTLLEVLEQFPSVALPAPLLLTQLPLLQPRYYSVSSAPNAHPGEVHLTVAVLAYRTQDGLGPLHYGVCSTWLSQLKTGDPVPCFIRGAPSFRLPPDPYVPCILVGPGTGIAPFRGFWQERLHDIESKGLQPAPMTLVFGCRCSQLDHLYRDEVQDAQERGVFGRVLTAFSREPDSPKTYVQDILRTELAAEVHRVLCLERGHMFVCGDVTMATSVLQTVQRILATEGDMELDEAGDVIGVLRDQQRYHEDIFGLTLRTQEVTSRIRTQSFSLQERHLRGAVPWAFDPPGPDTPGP
# Protocol: Briefly, confluent BAEC were incubated in serum-free DMEM for 6 hours with peptides. Media was removed and fresh serum-free DMEM was added, with or without VEGF (10^−9 M) for 30 min. Media was collected, cells were trypsinized and counted, and nitrites levels in the supernatant were determined by using a Sievers NO chemiluminescence analyzer.
# AP-Cav blocks agonist-induced eNOS activity in cultured endothelial cells (Bucci et al., 2000, Nat. Med. 6:1362-7), and this biological activity is dependent on AP-Cav's internalization, dosage and pretreatment time. In the present study, the uptake potential of Endo5 was compared with that of AP by testing the effect of Endo5 fused to Cav (endo5-Cav) on NO release by cultured BAEC.
# HUVEC = assay: CPP imaging in live HUVEC (epifluorescence, pulse/chase); type: cell-based, human; details: for staining pattern after 1 h pulse: 37° C.; for staining pattern after two-hour chase: 2 h chase in absence of CPP
# Protocol: Freshly isolated HUVEC were grown in M199 media supplemented with glutamine, 10% FBS and endothelial cell growth supplement on Petri dishes with glass bottom. Since CPPs bind non-specifically to glass, the background fluorescence was reduced by pretreating glass-bottom Petri dishes with a blocking solution containing unlabelled AP and Endo5 for 30 min (5×10^−5 M) in colorless M199 media with 1% FBS. After cell seeding, media was removed and carboxyfluorescin-labeled Endo5 and Rhodamine-labeled AP were added to cells (10^−5 M) and cells were incubated at 37° C. and 5% CO2 for 1 hour (pulse). Media was removed, cells were rinsed once with warm culture media and peptide uptake was rapidly visualized on a Zess Axiovert inverted fluorescence microscope by performing a Z-stack of captured images followed by volume deconvolution (Openlab software). The new media was left on cells for an additional 2 hours (total 3 hours) to chase CPP localization, and cells were visualized again (chase).
# In the present study, epifluorescence microscopy experiments were performed in live HUVEC to compare the uptake mechanism of Endo5 to AP. After blocking glass bottom Petri dishes with unlabelled AP and Endo5 to minimize non-specific binding of labeled peptides, freshly isolated HUVEC were grown to 50% confluent and labeled with a “pulse” of carboxyfluorescein-Endo5 and rhodamine-AP (10^−6M) for 1 h, rinsed, followed by a two-hour “chase” for a total of 3 hours. Deconvoluted images were captured after the “pulse” and “chase” periods. […] (FIG. 5A). Nuclear staining was nearly completely absent (dark central area).
# [1] = Peptide solubility in NO release dose-response experiment; type: physicochemical; details: above 2.5×10^-5 M
# [2] = peptide 10^-5 M, VEGF 10^-9 M 30 min
Substance,inhibition of VEGF-induced NO release (eNOS; [2]),effect on basal (unstimulated) NO release (eNOS; peptide 10^-5 M),staining pattern after 1 h pulse (HUVEC),staining pattern after two-hour chase (HUVEC),inhibition of VEGF-induced NO release (eNOS; peptide 2×10^-6 M),solubility limit [1]
"RQIKIWFQNRRMKWKK [AP, reference compound]",no significant effect,no significant effect,diffuse punctate cytoplasmic staining,more concentrated rather than diffuse pattern,,
"RRPPR [Endo5, short five-amino acid cell-permeable peptide]",no significant effect,no significant effect,diffuse punctate cytoplasmic staining,more concentrated rather than diffuse pattern,,
"Endo5-CavAB: Endo5 fused to the Cav AB domain (caveolin-1 amino acids 82-95, SEQ ID NO: 6); a 19-mer peptide (RRPPRDGIWKASFTTFTVT)",completely blocked,,,,49%,
RQIKIWFQNRRMKWKKDGIWKASFTTFTVTKYWFYR [AP-Cav],,,,,,peptide insolubility at greater dose

# Source: US10550151B2, “Cell-penetrating compositions and methods using same” (Yale University, priority 2013, dated 2020)
